The text below walks through data of US20220235344A1, “TRYPSIN VARIANTS WITH IMPROVED ENZYMATIC PROPERTIES” (BIOPHARMA TRANSLATIONSINSTITUT DESSAU FORSCHUNGS GMBH, priority 2018, published 2022).

Several values for one entry are separate records, joined by “and”; a condition that tells them apart may be missing. Equal values may be shown once.

By Km is commonly meant the substrate concentration at which the rate is half of its maximum.

In data set [1] the target is T1, H-RAHAK(DNP)-OH (acyl acceptor), acyl donor Bz-PGGYRAHAG-OH (Rattus norvegicus, UniProt P00763, D194K/K66E/Y45H/Y65H).
T1 construct: made in house; host or cells: Pichia pastoris X-33
T1 sequence (P00763 24-246 Y45H/Y65H/K66E/D194K): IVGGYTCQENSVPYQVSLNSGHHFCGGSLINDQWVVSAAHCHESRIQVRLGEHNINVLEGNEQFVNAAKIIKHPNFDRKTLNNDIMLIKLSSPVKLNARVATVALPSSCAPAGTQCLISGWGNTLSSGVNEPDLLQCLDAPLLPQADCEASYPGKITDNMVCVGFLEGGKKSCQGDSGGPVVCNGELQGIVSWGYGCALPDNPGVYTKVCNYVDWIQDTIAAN
Kind of data set: KM value of the nucleophilic peptide (acyl acceptor). The class given is biochemical. To be noted: Zinc ions (100 μM): yes; 250 μM Bz-PGGYRAHAG-OH, varying H-RAHAK(DNP)-OH. The method, then:
For Trypsiligase II the measurements for KM values of the nucleophilic peptide (acyl acceptor) were carried out in the presence or absence of zinc ions due to its strong zinc ion dependency. In case of variant A2C8 measurements were carried out in the absence of zinc ions.
Transamidation reactions with Trypsiligase II and variant A2C8 were performed in a solution containing 250 μM of the acyl donor Bz-[…]-OH, varying concentrations of the acyl acceptor H-RAHAK(DNP)-OH (0-5000 μM for Trypsiligase II in the absence of zinc ions, 0-1500 μM for Trypsiligase II in the presence of zinc ions, 0-1000 μM for variant A2C8), 0.2-1.5 μM trypsin variant, 100 mM HEPES/NaOH pH 7.8, ±0.1 mM ZnCl2, 100 mM NaCl, 10 mM CaCl2 at 30° C. The reaction was started by the addition of enzyme. For kinetic evaluation of the reaction several aliquots of the reaction mixture were quenched with 25% (v/v) acetic acid at distinct time points within 30 minutes. The composition of the reaction mixture was analyzed by UPCL using method II (see example 1). UV absorption of the 2,4-Dinitrophenyl group (DNP), which is present in the acyl acceptor as well as in the aminolysis product, was detected at 360 nm. To determine the KM value of the nucleophilic peptide the initial rates for the aminolysis reaction were plotted against the corresponding acyl acceptor concentration and fitted to the Michaelis Menten equation. Measurements were performed as duplicates and errors were less than 5%.

Data set [2] relates to anti-Her2-Fab-LC_RRKHAK(CF)/HC_YRAH (YRAH at heavy chain). Kind of data set: Orthogonal dual-modification of Her2-specific Fab-fragment, second step (heavy chain, DM1). The data set is classed as biochemical. From the text:
FIG. 6: Dual modification of a Fab-fragment by utilizing variation in substrate specificity of two Trypsiligase II variants. The HER2-specific Fab-fragment of Trastuzumab (anti-Her2-Fab-LC_RRKH/HC_YRAH, Heavy chain (SEQ ID NO: 2) and anti-Her2-Fab-LC_RRKH/HC_YRAH, Light chain (SEQ ID NO: 3)) was used and the respective recognition sequences genetically introduced. A) Trypsiligase II variant K7F11_H39Y/H59Y/K189D which recognizes the sequence RRKH was used in the first step for attachment of a carboxyfluorescein(CF)-bearing nucleophile. B) In the second step Trypsiligase II variant A2C8 which recognizes the sequence YRAH was used for modification with a nucleophile covalently bound to mertansine (DM1). Analysis by LC-MS. The amount of modified and unmodified Fab-fragment species for the first and second modification step are shown in MS spectrum A and B, respectively. […]
The second modification reaction of the heavy chain was performed in a solution containing 50 μM of the single modified aHer2-Fab-LC_RRKHAK(CF)/HC_YRAH, 1000 μM H-RKKAK(MCC-DM1)-OH, 5 μM A2C8, 100 mM HEPES/NaOH pH 7.8, 100 mM NaCl. […] The proportions of modified and unmodified Fab-fragment species for the first and second modification step were analyzed by LC-MS (see example 1). […] No modification upon the recognition sequence at the heavy chain had been monitored.

B1: Trypsiligase II (trypsin variant Y39H/Y59H/K60E/D189K) (protein)
chain: T1 sequence (P00763 24-246 Y45H/Y65H/K66E/D194K)
In the case of B1, the Michaelis-Menten constant (Km) in data set [1] is 143 µM and 144 µM.

B2: A2C8: Trypsiligase II + H40F, A55A, R96E, K97D, L99F, N143E, E151Y, S190V, Q192A, S214G, G219Q, A221T (protein)
chain: IVGGYTCQENSVPYQVSLNSGHFFCGGSLINDQWVVSAAHCHESRIQVRLGEHNINVLEGNEQFVNAAKIIKHPNFDEDTFNNDIMLIKLSSPVKLNARVATVALPSSCAPAGTQCLISGWGETLSSGVNYPDLLQCLDAPLLPQADCEASYPGKITDNMVCVGFLEGGKKVCAGDSGGPVVCNGELQGIVGWGYQCTLPDNPGVYTKVCNYVDWIQDTIAAN
Turning to B2, the “yield of dual labeled Fab-fragment” value in data set [2] (estimated by mass spectrometry) was “approximately 75%”. Further, in data set [2] (mass spectrometry), the “site of modification, second step” value was “exclusively modification at the C-terminal end of the heavy chain”.
